Results as given in patent publication US20230012273A1 (Boehringer Ingelheim, published 2023).
Residue numbers refer to the chain shown, from its start.

B1: Antibody A1 (antibody, human IgG1, kappa, L234A L235A, V domains shown)
VH: EVQLVESGGGLVQPGGSLRLSCAASGFTLSSYDMHWVRQAPGKGLEWVSAIGTAGDTYYTGSVKGRFTISRENAKNSLYLQMNSLRADDTAVYYCVRGGVWDDAFDIWGQGTMVTVSS
VL: DIQMTQSPSSLSASVGDRVTITCRASQGINNYAAWFQQKPGKAPKSLIYTASSLHSGVPSKFSGSGSGTDFTLTISSLQPEDFATYYCQQYVSYPYTFGQGTKLEIKR
B2: Antibody A7 (antibody, human IgG1, kappa, L234A L235A, V domains shown)
VH: B1 VH with P41T, D88G
VL: B1 VL
B3: Antibody A2 (antibody, human IgG1, kappa, L234A L235A, V domains shown)
VH: B1 VH with P41T, D88A
VL: B1 VL
B4: Antibody A8 (antibody, human IgG1, kappa, L234A L235A, V domains shown)
VH: B1 VH with D88G
VL: B1 VL
B5: Antibody A9 (antibody, human IgG1, kappa, L234A L235A, V domains shown)
VH: B1 VH
VL: B1 VL with G28D, A33L
B6: Antibody A5 (antibody, human IgG1, kappa, L234A L235A, V domains shown)
VH: B1 VH with D88S
VL: B1 VL
B7: Antibody A6 (antibody, human IgG1, kappa, L234A L235A, V domains shown)
VH: B1 VH with D88E
VL: B1 VL
B8: Antibody A3 (antibody, human IgG1, kappa, L234A L235A, V domains shown)
VH: B1 VH with P41T, D88S
VL: B1 VL
B9: Antibody E21 (antibody, human IgG1, kappa, L234A L235A, V domains shown)
VH: QVQLQESGPGLVRPSETLSLTCTVSGGSIRNYYWSWIRQPPGKGLEWIGFIYYTGRTFYNPSLKSRVTISLDMSKNQFSLKMTSVTAADTAVYYCARVRAYSGIGLDGTDVWGQGTTVTVSS
VL: DIVMTQSPLSLPVTPGEPASISCKSSQSLLYSNAYNYLDWYLQRPGQSPQLLIYLGSNRASGVPDRFSGSGSGTDFTLKISRVEAEDVGVYYCMQALQTPLTFGGGTKVEIKR
B10: Antibody A10 (antibody, human IgG1, kappa, L234A L235A)
heavy: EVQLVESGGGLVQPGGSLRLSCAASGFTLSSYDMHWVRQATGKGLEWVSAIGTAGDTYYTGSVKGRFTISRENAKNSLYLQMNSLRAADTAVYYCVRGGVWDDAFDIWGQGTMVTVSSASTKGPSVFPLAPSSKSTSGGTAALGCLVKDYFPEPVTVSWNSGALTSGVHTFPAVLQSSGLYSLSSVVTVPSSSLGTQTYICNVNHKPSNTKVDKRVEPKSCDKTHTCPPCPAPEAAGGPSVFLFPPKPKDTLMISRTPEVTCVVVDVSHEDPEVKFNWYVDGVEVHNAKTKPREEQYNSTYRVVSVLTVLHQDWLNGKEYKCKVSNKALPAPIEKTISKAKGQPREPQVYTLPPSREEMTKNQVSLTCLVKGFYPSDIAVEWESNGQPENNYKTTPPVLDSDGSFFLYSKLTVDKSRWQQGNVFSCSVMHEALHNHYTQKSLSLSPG
light: DIQMTQSPSSLSASVGDRVTITCRASQDINNYLAWFQQKPGKAPKSLIYTASSLHSGVPSKFSGSGSGTDFTLTISSLQPEDFATYYCQQYVSYPYTFGQGTKLEIKRTVAAPSVFIFPPSDEQLKSGTASVVCLLNNFYPREAKVQWKVDNALQSGNSQESVTEQDSKDSTYSLSSTLTLSKADYEKHKVYACEVTHQGLSSPVTKSFNRGEC
B11: Antibody A4 (antibody, human IgG1, kappa, L234A L235A, V domains shown)
VH: B1 VH with D88A
VL: B1 VL
B12: Antibody A11 (antibody, human IgG4 S228P, kappa)
heavy: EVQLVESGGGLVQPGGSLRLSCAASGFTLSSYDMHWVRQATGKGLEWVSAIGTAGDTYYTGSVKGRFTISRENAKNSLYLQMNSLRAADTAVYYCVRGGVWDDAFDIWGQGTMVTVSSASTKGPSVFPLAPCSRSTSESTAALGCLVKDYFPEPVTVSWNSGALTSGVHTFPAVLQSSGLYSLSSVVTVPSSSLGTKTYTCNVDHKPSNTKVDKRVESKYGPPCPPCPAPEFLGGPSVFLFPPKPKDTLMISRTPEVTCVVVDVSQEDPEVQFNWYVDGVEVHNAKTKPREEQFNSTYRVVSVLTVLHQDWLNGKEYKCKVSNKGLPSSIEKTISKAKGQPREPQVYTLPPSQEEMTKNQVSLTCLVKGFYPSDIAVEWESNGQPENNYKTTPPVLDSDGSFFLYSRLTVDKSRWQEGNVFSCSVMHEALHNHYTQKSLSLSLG
light: B10 light

target: T1, Human SIRPαV2 (CAA71403.1), Extracellular Domain + His-Tag (human, UniProt P78324 31-373); assay: SPR, antibody captured on Protein A/G, ECD-His analyte, 1:1 fit
T1 construct: also called huSIRPαV2; hSIRPαV2; not shown: His-Tag
Summary of the method: (§1)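 Analyte was His-tagged SIRPα extracellular domain in dilution series, associating 300 s and dissociating 600 s at 30 μl/min. Ligand was antibody captured (~240 RU) on immobilized Protein A/G (~3000 RU). Running buffer HBS-EP+.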

T1 sequence (P78324 other isoform, or with tags, fused parts or gaps): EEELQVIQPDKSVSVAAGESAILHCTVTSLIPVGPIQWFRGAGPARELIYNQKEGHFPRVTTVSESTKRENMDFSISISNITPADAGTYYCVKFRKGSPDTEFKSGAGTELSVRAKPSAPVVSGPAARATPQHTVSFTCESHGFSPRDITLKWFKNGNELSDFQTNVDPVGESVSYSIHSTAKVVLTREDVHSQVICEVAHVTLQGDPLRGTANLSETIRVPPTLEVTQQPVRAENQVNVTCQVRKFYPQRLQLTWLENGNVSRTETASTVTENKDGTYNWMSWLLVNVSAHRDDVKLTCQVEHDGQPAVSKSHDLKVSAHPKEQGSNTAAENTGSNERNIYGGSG

| Binder | Kd [nM] | koff [s⁻¹] | kon [M⁻¹ s⁻¹] |
| --- | --- | --- | --- |
| B1 | 18.6 | 0.0162 | 869000 |
| B2 | 20.4 | 0.019 | 933000 |
| B3 | 20.9 | 0.0184 | 883000 |
| B4 | 18.8 | 0.0162 | 859000 |
| B5 | 8.25 | 0.00652 | 791000 |
| B6 | 17.8 | 0.0162 | 909000 |
| B7 | 18.1 | 0.0171 | 947000 |
| B8 | 19.6 | 0.0178 | 907000 |

target: T2, Human SIRPαV1 (NP_542970.1), Extracellular Domain + His-Tag (human, UniProt P78324 31-373); assay: as above
T2 construct: also called huSIRPαV1; hSIRPαV1; not shown: His-Tag
Summary of the method: as §1

T2 sequence (P78324 other isoform, or with tags, fused parts or gaps): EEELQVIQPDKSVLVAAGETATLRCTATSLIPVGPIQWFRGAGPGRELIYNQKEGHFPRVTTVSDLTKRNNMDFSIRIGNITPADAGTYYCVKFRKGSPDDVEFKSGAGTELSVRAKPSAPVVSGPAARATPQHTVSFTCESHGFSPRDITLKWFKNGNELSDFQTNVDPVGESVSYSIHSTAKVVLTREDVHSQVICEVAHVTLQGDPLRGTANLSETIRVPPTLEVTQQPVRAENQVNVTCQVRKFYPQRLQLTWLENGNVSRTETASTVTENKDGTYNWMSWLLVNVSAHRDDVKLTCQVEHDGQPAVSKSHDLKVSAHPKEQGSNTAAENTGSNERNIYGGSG

| Binder | Kd [nM] | koff [s⁻¹] | kon [M⁻¹ s⁻¹] |
| --- | --- | --- | --- |
| B1 | 8.6 | 0.00625 | 727000 |
| B2 | 9.38 | 0.00672 | 716000 |
| B3 | 9.39 | 0.00685 | 729000 |
| B4 | 8.53 | 0.00604 | 708000 |
| B5 | 7.34 | 0.00363 | 495000 |
| B6 | 8.75 | 0.00598 | 684000 |
| B7 | 8.28 | 0.00634 | 766000 |
| B8 | 9.06 | 0.00661 | 730000 |

target: T3, human SIRPαV2 extracellular domain + His-tag (CAA71403.1) (human, UniProt P78324 31-373); assay: SPR, Ab captured, ECD-His analyte
T3 construct: also called hSIRPαV2; HuSIRPαV2
Method: (§2) The binding affinity of anti-SIRPα antibodies to the various SIRPα analytes is determined by surface plasmon resonance (SPR) using a ProteOn XPR36 (Bio-Rad). The running buffer for this experiment and all dilutions (except where stated) are done in 1×HBS-EP+. […] The sensorchip is deactivated with 1M ethanolamine HCl for 420 sec at a flowrate of 10 μl/min.
(§3) The analyte is injected over the captured antibody for 300 sec at a flowrate of 30 μl/min. The dissociation is done for 600 sec. Two-fold serial dilutions of each SIRP protein (Extracellular Domain+His-Tag) are injected as analyte with the highest concentrations indicated in table 36 below.

| Binder | Kd [nM] |
| --- | --- |
| B9 | 1.39 |

target: T4, human SIRPβL/SIRPβ1v3 extracellular domain + His-tag (NP_001129316.1) (human, UniProt Q5TFQ8 30-371); assay: SPR, Ab captured, ECD-His analyte
T4 construct: also called hSIRPβ1v3; HuSIRPβ1v3
Method: as §2, §3

T4 sequence (Q5TFQ8 other isoform, or with tags, fused parts or gaps): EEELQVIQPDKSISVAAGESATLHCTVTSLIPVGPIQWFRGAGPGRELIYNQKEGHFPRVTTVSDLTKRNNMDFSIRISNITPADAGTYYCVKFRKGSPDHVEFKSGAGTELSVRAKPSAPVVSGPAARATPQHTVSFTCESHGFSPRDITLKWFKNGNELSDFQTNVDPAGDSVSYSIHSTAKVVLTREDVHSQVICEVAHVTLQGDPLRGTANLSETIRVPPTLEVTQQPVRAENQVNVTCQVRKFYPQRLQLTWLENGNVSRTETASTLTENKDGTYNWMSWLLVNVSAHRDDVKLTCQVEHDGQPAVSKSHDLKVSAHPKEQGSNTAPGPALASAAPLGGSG

| Binder | Kd [nM] |
| --- | --- |
| B9 | 8.84 |

target: T5, human SIRPγ extracellular domain + His-tag (NP_061026.2) (human, UniProt Q9P1W8 29-360); assay: SPR, Ab captured, ECD-His analyte
T5 construct: also called hSIRPγ; HuSIRPγ
Method: as §2, §3

T5 sequence (Q9P1W8 29-360): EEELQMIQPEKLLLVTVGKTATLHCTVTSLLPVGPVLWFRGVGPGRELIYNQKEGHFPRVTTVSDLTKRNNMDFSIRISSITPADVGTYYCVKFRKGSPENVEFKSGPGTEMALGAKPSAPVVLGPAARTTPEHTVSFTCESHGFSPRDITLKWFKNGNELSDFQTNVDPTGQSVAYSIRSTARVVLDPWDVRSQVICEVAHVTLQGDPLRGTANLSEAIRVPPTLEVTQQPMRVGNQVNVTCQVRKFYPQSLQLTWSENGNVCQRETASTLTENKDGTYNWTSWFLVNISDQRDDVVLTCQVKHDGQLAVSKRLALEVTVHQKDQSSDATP

| Binder | binding result |
| --- | --- |
| B9 | no binding (tested: 1000 nM) |

target: T6, human SIRPβ1 extracellular domain + His-tag (NP_006056.2) (human, UniProt O00241 30-371); assay: SPR, Ab captured, ECD-His analyte
T6 construct: also called hSIRPβ1; HuSIRPβ1
Method: as §2, §3

T6 sequence (O00241 other isoform, or with tags, fused parts or gaps): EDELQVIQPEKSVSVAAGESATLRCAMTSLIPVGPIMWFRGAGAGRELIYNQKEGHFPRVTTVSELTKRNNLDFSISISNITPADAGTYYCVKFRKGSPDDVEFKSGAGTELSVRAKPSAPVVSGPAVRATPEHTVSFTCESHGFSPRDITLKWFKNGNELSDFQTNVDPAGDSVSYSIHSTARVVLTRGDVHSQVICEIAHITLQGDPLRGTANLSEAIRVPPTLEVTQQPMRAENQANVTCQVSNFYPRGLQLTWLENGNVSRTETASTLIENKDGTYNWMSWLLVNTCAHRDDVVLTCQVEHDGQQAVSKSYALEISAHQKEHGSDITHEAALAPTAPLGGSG

| Binder | binding result |
| --- | --- |
| B9 | no binding (tested: 1000 nM) |

target: T7, human SIRPαV1 extracellular domain + His-tag (NP_542970.1) (human, UniProt P78324 31-373); assay: SPR, Ab captured, ECD-His analyte
T7 construct: also called hSIRPαV1; HuSIRPαV1
Method: as §2, §3

| Binder | Kd [nM] |
| --- | --- |
| B9 | 4.46 |

Target: T8, cynoSIRPα (NP_001271679), Extracellular Domain + His-Tag (cynomolgus monkey)
T8 construct: also called CySIRPα NP_001271679; not shown: His-Tag
T8 chain: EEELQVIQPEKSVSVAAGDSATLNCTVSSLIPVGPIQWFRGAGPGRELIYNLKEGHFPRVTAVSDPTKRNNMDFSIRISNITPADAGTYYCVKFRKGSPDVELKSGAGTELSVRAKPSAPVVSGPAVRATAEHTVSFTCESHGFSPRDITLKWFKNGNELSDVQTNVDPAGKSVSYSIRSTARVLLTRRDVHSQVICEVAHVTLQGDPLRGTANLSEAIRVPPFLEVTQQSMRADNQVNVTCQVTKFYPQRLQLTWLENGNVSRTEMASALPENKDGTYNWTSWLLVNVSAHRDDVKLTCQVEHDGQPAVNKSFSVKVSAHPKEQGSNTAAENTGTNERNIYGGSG
Assay: SPR, antibody captured on Protein A/G, ECD-His analyte, steady-state fit
Method: (§4) The binding kinetics of anti-SIRPα antibodies to various SIRPα analytes are determined by surface plasmon resonance (SPR) using a Biacore 8K+(Cytiva). 1×HBS-EP+(Cytiva) is used as running buffer and for all the dilutions unless stated otherwise. The Series S CM5 sensorchip is activated with a 1:1 mixture of 0.1 M NHS (N-hydroxysuccinimide) and 0.4 M EDC (1-Ethyl-3-(3-dimethylaminopropyl) carbodiimide hydrochloride) for 420 seconds at a flow rate of 10 μl/min and immobilized with Protein A/G (Thermo Scientific, 10 μg/ml in 10 mM acetate pH 4.5) for 420 seconds at a flowrate of 10 μl/min resulting in approximately 3000 RU of Protein A/G on the surface. The sensorchip is then deactivated with 1 M ethanolamine HCl pH 8.5 for 420 seconds at a flowrate of 10 μl/min.
(§5) Antibodies (approximately 1 ug/ml) are captured on the Protein A/G surface for 60 seconds at a flowrate of 10 μl/min resulting in capture levels of approximately 240 RU. Dilutions of each SIRP protein (Extracellular Domain+His-Tag, with the concentrations as indicated) are injected as analytes over the captured antibody for 300 seconds of association at a flowrate of 30 μl/min, followed by a dissociation for 600 seconds.
(§6) The above procedures are used to measure binding properties of antibodies of the present disclosure. For each analyte used, the highest concentration was as indicated in Example 3 (see Table 36).

| Binder | Kd [nM] |
| --- | --- |
| B1 | 780 |
| B2 | 741 |
| B3 | 887 |
| B10 | 388 |
| B4 | 639 |
| B5 | 346 |
| B11 | 669 |
| B6 | 665 |
| B7 | 684 |
| B8 | 857 |
| B12 | 410 |

Target: T9, cynoSIRPα (XP_015313155), Extracellular Domain + His-Tag (cynomolgus monkey)
T9 construct: also called CySIRPα XP_015313155; not shown: His-Tag
T9 chain: T8 chain with A62P, V163F, L185V
Assay: as above
Method: as §4, §5, §6

| Binder | Kd [nM] |
| --- | --- |
| B1 | 427 |
| B2 | 466 |
| B3 | 469 |
| B10 | 203 |
| B4 | 415 |
| B5 | 174 |
| B11 | 420 |
| B6 | 415 |
| B7 | 420 |
| B8 | 480 |
| B12 | 204 |

Target: T10, cynoSIRPα (EGM_02252), Extracellular Domain + His-Tag (cynomolgus monkey)
T10 construct: also called CySIRPα EGM_02252; not shown: His-Tag
T10 chain: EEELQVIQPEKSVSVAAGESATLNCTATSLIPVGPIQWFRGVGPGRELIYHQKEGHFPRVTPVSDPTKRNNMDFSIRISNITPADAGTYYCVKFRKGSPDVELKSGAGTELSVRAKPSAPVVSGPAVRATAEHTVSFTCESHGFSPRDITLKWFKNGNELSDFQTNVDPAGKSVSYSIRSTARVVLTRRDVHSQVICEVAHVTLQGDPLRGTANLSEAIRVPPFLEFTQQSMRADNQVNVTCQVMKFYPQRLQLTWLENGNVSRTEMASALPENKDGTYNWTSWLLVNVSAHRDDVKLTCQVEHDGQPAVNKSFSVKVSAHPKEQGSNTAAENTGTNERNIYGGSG
Assay: as above
Method: as §4, §5, §6

| Binder | Kd [nM] |
| --- | --- |
| B1 | 523 |
| B2 | 588 |
| B3 | 556 |
| B10 | 282 |
| B4 | 520 |
| B5 | 230 |
| B11 | 488 |
| B6 | 517 |
| B7 | 521 |
| B8 | 560 |
| B12 | 298 |
